Literature values, collected in article PMC4488278.

Biological target: EGFR (Homo sapiens) (UniProt P00533)

EGF (from UniProt P01133)
Kd: 1 nM
